This note sets out measurements from patent US8846873B2, “Antibodies directed to GPNMB and uses thereof” (Celldex Therapeutics, Inc., priority 2004, dated 2014).

“Also recorded” adds a separate entry of the source.

One test concerns SK-Mel-2 cells. The test is described as follows: ADCC assay with human PBMC (DELFIA EuTDA cytotoxicity). It counts as cell-based. As to conditions: human PBMC 30 to 100 fold; 2, 5, 10 μg/200 μl; listed as CR011 IgG2. The procedure:
We next examined whether the CR0111gG1 mAb could induce ADCC in SK-MEL-2 cells in culture in the presence of human PBMC. Human PBMC were isolated from whole blood using a Ficoll-Plaque. Briefly, in a 50 mL tube, 15 mL of PBS was added to 20 mL of whole blood which was underlayed with 10 mL Ficoll-Plaque and the tube was centrifuged at 2000 RPM. Mononuclear cells were collected from the interface and washed 3 times with PBS. The ADCC assay was carried out in a 96 well plate using a fluorescence assay for cytolysis from Perkin-Elmer (DELFIA EuTDA Cytotoxic assay). The procedure is based on loading target cells with a fluorescence enhancing ligand (BATDA, bis (acetoxymethyl) terpyridine—dicarboxylate). The hydrophic ligand penetrates the membrane quickly. Within the cell the esterbonds are hydrolyzed to form a hydrophilic ligand (TDA, terpyridine—dicarboxylic acid) which can no longer pass through the membrane. After cytolysis the ligand is released and introduced to the Europium solution. The europium and the ligand form a highly fluorescent and stable chelate (EuTDA). Fluorescence intensity are recorded using excitation and emission wavelengths as λex=340 nm and λem=613 nm, respectively.

For test [1], the system named is SK-MEL-2 melanoma xenografts. In words: Human SK-MEL-2 melanoma xenograft in athymic mice. In kind it is in vivo. Conditions: CR011-ONC-1, CR011-vcMMAE 5 mg/kg/treatment i.v. q4d x4, components at doses identical to those in the immunoconjugate. The procedure:
Test Animals: Five- to 6-week old athymic mice (CD-1 nu/nu females), used for human tumor xenografts, were obtained from Harlan Laboratories (Indianapolis, Ind.). Animals were housed in specific pathogen-free conditions, according to the guidelines of the Association for Assessment and Accreditation of Laboratory Animal Care International (AAALAC International). Test animals were provided pelleted food and water ad libitum and kept in a room with conditioned ventilation (HVAC), temperature (22°±2° C.), relative humidity (55%±15%), and photoperiod (12 hr). All studies were carried out with approved institutional animal care and use protocols.
Human Melanoma Xenograft Models. The tumor inhibitory activity of the CR011-MMAE immunoconjugate was measured in an anti-tumor xenograft model using athymic mice, according to published methods (see Geran et al., Cancer Chemother. Rep. 3:1-104 (1972)). […] When tumors became established (10-20 days), the animals were pair-matched into groups (n=6 mice/group), and treatment was administered by intravenous injection (tail vein). […]
The effects of treatment were monitored by repetitive tumor measurements across 2 diameters with Vernier calipers; tumor size (in mg) was calculated using a standard formula, (W^2×L)/2, assuming a specific gravity of 1.0. Tumor size and body weights were assessed twice weekly. […]
Background: In xenograft studies the graft and the host belong to different species.

B1: Mab1.15.1 (protein, listed as Homo sapiens)
chain: QVQLQESGPGLVKPSQTLSLTCTVSGGSISSFNYYWSWIRHHPGKGLEWIGYIYYSGSTYSNPSLKSRVTISVDTSKNQFSLTLSSVTAADTAVYYCARGYNWNYFDYWGQGTLVTVSSA
In the case of B1, in the test with SK-Mel-2 cells, the “ADCC / cytolysis of SK-MEL-2 cells” value was “do not cause ADCC; also recorded: did not show any cytolysis”. Moreover, the tumor response result in test [1] (listed as CR011 antibody alone) is given as “lack of tumor growth inhibition”; in test [1] (listed as unconjugated CR011), “lack of responses”.
